The values below come from PMC3804942 (The Journal of Experimental Medicine, 2013).

One data set deals with RAGE V domain (His) (human, UniProt Q15109 23-121). The experiment in a line: AlphaScreen. In general terms: Alpha assays give light when donor and acceptor beads are brought close together.
The target of data set [1] is T1, RAGE extracellular domain V-C1-C2 (His) (human, UniProt Q15109 23-342). The experiment in a line: AlphaScreen.
The data set “crystal structure” concerns the molecule itself. The experiment in a line: crystal structure.
Data set [2] deals with T2, RAGE V-C1 (crystallography) (human, UniProt Q15109 23-237). The experiment in a line: X-ray crystallography.
The next data set has as its target RAGE mutant 0 (UniProt Q15109 23-237, K110A;R178A;R179A). The experiment in a line: fluorescence polarization. A general note: In fluorescence polarisation assays a small probe gives low polarisation when free and higher when bound to something large.
Data set [3] addresses T2, RAGE V-C1 (crystallography). The experiment in a line: X-ray crystallography. This is another data set of the same source.
For data set [4], the target named is T1, RAGE extracellular domain V-C1-C2 (His). The experiment in a line: AlphaScreen. This is another data set of the same source.

Where two headings read alike, the source gives them in different places.

B1: ODN 2006 (CpG-B) (ssDNA)
DNA: TCGTCGTTTTGTCGTTTTGTCGTT
modifications: backbone of assayed form not in material; probably phosphorothioate
Turning to B1, the binding result (with RAGE V domain (His); in data set [1]) was “binds” throughout.

B2: Human RAGE V-C1 domain (residues 23-237) (domain or fragment)
chain: AQNITARIGEPLVLKCKGAPKKPPQRLEWKLNTGRTEAWKVLSPQGGGPWDSVARVLPNGSLFLPAVGIQDEGIFRCQAMNRNGKETKSNYRVRVYQIPGKPEIVDSASELTAGVPNKVGTCVSEGSYPAGTLSWHLDGKPLVPNEKGVSVKEQTRRHPETGLFTLQSELMVTPARGGDPRPTFSCSFSPGLPRHRALRTAPIQPRVWEPVPLEE
As to B2, in “crystal structure”, the binding result was “binds”.

B3: ODN 981/982 CpG 22mer (dsDNA)
DNA 1: CTGCAACGATGCTACGAACGTG
DNA 2: CACGTTCGTAGCATCGTTGCAG
For the molecule B3, the binding result in data set [2] is given as “binds”.

B4: ODN 787/788 20mer (dsDNA)
DNA 1: CCATCAAAGAGAGAAAGAGC
DNA 2: GCTCTTTCTCTCTTTGATGG
Take B4: the binding result with RAGE mutant 0 was “binds”.

B5: ODN 752/753 vaccinia repeat 22mer (dsDNA)
DNA 1: CCATGACTGTAGGAAACTCTAG
DNA 2: GCTAGAGTTTCCTACAGTCATG
As to B5, the binding result in data set [3] is “binds”.

B6: ODN 2336 (CpG-A) (ssDNA)
DNA: GGGGACGACGTCGTGGGGGGG
modifications: phosphorothioate at positions marked * (G*G*GGACGACGTCGTGG*G*G*G*G*G)
Regarding B6, the binding result in data set [4] is “binds”.
